Changes are numbered by the printed parent chain. Names may count otherwise.
Experiments:
[1] = molecular target: the molecule itself; assay: SEC; Superdex-75 column (10/300 mm), 20 mM Caps, pH 9.4, 0.5 M NaCl, 0.5 mL/min; refolded R119G mutant
[2] = molecular target: the molecule itself; assay: SEC; R119H mutant (Fig. S4); column and buffer not stated

B1: Human P5CR1 R119G mutant (enzyme, UniProt P32322 1-319, looked up)
chain: MSVGFIGAGQLAFALAKGFTAAGVLAAHKIMASSPDMDLATVSALRKMGVKLTPHNKETVQHSDVLFLAVKPHIIPFILDEIGADIEDRHIVVSCAAGVTISSIEKKLSAFRPAPRVIGCMTNTPVVVREGATVYATGTHAQVEDGRLMEQLLSSVGFCTEVEEDLIDAVTGLSGSGPAYAFTALDALADGGVKMGLPRRLAVRLGAQALLGAAKMLLHSEQHPGQLKDNVSSPGGATIHALHVLESGGFRSLLINAVEASCIRTRELQSMADQEQVSPAAIKKTILDKVKLDSPAGTALSPSGHTKLLPRSLAPAGKD
notes: Pyrroline-5-carboxylate reductase 1 (P5CR1), human, encoded by PYCR1, with the ARCL-associated mutation R119G; monomer molecular weight printed as 33.3 kDa; Made by PCR mutagenesis of WT-pET28a-P5CR1; also called R119G P5CR1; pET28a-P5CR1-R119G; source: E. coli BL21 (DE3), inclusion bodies, denatured in 6 M urea, purified (Ni2+-chelating column), renatured, SEC
stoichiometry N [1]: 2

B2: Human P5CR1 R119H mutant (enzyme, UniProt P32322 1-319, looked up)
chain: B1 chain with G119H
notes: Pyrroline-5-carboxylate reductase 1 (P5CR1), human, encoded by PYCR1, with the mutation R119H; source: expressed mostly as inclusion bodies, purified with a Ni2+-chelating column; plasmid constructed 'by the previous method'
stoichiometry N [2]: 2

— article PMC5286483, “Effect of R119G Mutation on Human P5CR1 Dynamic Property and Enzymatic Activity” (BioMed Research International, 2017)
